T1: human FcγRIIb (human, UniProt P31994 43-217, limits assumed)
T1 construct: also called FcgRIIb; hFcgRIIb
T1 sequence: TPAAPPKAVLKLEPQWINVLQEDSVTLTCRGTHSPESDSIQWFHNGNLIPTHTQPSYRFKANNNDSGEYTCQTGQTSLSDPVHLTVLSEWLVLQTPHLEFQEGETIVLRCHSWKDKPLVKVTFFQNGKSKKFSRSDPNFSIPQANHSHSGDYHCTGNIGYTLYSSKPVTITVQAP

T2: human FcγRIIa(R) (human, UniProt P12318 36-217)
T2 construct: also called FcgRIIaR; hFcgRIIa(R)
T2 chain: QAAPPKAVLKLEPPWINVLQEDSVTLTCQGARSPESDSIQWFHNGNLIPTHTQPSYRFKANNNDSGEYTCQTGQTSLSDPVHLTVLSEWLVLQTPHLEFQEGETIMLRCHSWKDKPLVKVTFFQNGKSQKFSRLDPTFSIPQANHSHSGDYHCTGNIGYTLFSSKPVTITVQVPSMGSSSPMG

T3: human FcγRIIa(H) (human, UniProt P12318 36-217)
T3 construct: also called FcgRIIaH; hFcgRIIa(H)
T3 sequence: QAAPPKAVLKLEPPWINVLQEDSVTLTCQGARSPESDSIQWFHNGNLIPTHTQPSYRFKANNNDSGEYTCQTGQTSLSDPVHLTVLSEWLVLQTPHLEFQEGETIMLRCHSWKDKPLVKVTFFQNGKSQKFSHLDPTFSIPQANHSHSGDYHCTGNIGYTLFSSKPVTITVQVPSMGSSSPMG


Experiments:
Assay in all cases: SPR, captured antibody;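 also: antibody captured on a sensor chip, Fcγ receptor flowed over at 25 °C, receptor binding normalized to the captured antibody amount and expressed relative to the reference antibody ×100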
human FcγRIIb = biological target: T1, human FcγRIIb
Experimental: (§1) Interaction between each modified antibody and Fcγ receptor prepared in the manner described above was analyzed using the BIACORE™ T100 surface plasmon resonance system (GE Healthcare), BIACORE™ T200 surface plasmon resonance system (GE Healthcare), BIACORE™ A100 surface plasmon resonance system or BIACORE™ 4000 surface plasmon resonance system. HBS-EP+ (GE Healthcare) was used for the running buffer, and measurements were carried out at 25° C. The chips used were chips in which antigen peptides, Protein A (Thermo Scientific), Protein A/G (Thermo Scientific) or Protein L (ACTIGEN® protein (Alltech or BioVision) were immobilized on the Series S Sensor Chip CMS (GE Healthcare) or Series S Sensor Chip CM4 (GE Healthcare) by amine coupling, or chips in which preliminarily biotinylated antigen peptides were allowed to interact and then immobilized on the Series S Sensor Chip SA (certified) (GE Healthcare). The target antibodies were captured on these sensor chips, Fcγ receptor diluted with the running buffer was allowed to interact, followed by measurement of the amount of bound antibody. The amounts bound were compared between antibodies. However, since the amount of Fcγ receptor bound depends on the amount of captured antibody, the values used for comparison were first corrected by dividing the amount of Fcγ receptor bound by the captured amount of each antibody. Through reaction with 10 mM glycine-HCl at pH 1.5, the sensor chips were regenerated by washing off antibody captured on the sensor chips and used repeatedly.
(§2) Binding strength was evaluated according to the following method based on the results of analyzing the interaction with each FcγR. […] That value was then further multiplied by 100, and the resulting value was used as an indicator of relative binding activity to each FcγR.

human FcγRIIa(R) = biological target: T2, human FcγRIIa(R)
Experimental: as §1, §2

human FcγRIa = biological target: T4, human FcγRIa (human, UniProt P12314 16-292, limits assumed)
T4 construct: also called FcgRIa; hFcgRIa
Experimental: as §1, §2

human FcγRIIa(H) = biological target: T3, human FcγRIIa(H)
Experimental: as §1, §2

T4 sequence (P12314 16-292 limits assumed): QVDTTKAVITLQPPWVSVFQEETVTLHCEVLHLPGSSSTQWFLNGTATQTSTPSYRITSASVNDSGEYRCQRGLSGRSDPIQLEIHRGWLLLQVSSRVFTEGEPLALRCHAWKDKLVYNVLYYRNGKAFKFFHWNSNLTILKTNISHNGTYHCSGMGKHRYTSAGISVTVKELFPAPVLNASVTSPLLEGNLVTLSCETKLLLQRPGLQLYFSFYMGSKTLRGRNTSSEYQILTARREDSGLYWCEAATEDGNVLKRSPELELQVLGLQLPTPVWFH

Binder	relative binding activity (human FcγRIIb)	relative binding activity (human FcγRIIa(R))	relative binding activity (human FcγRIa)	relative binding activity (human FcγRIIa(H))
GpH7-B3 D270A/GpL16-k0 (antibody, human IgG1, B3 variant; copies: 2 + 2) heavy: not shown light: DIVMTQSPLSLPVTPGEPASISCQASESLVHSNRNTYLHWYLQKPGQSPQLLIYKVSNRFSGVPDRFSGSGSGTDFTLKISRVEAEDVGVYYCSQNTHVPPTFGQGTKVEIE	5 % of GpH7-B3/GpL16-k0	3 % of GpH7-B3/GpL16-k0	87 % of GpH7-B3/GpL16-k0	66 % of GpH7-B3/GpL16-k0
GpH7-B3 A327R/GpL16-k0 (antibody, human IgG1, B3 variant; copies: 2 + 2) heavy: not shown light: DIVMTQSPLSLPVTPGEPASISCQASESLVHSNRNTYLHWYLQKPGQSPQLLIYKVSNRFSGVPDRFSGSGSGTDFTLKISRVEAEDVGVYYCSQNTHVPPTFGQGTKVEIE	-3 % of GpH7-B3/GpL16-k0	-11 % of GpH7-B3/GpL16-k0	51 % of GpH7-B3/GpL16-k0	-2 % of GpH7-B3/GpL16-k0
GpH7-B3 D270F/GpL16-k0 (antibody, human IgG1, B3 variant; copies: 2 + 2) heavy: not shown light: DIVMTQSPLSLPVTPGEPASISCQASESLVHSNRNTYLHWYLQKPGQSPQLLIYKVSNRFSGVPDRFSGSGSGTDFTLKISRVEAEDVGVYYCSQNTHVPPTFGQGTKVEIE	5 % of GpH7-B3/GpL16-k0	5 % of GpH7-B3/GpL16-k0	88 % of GpH7-B3/GpL16-k0	62 % of GpH7-B3/GpL16-k0
GpH7-B3 D270L/GpL16-k0 (antibody, human IgG1, B3 variant; copies: 2 + 2) heavy: not shown light: DIVMTQSPLSLPVTPGEPASISCQASESLVHSNRNTYLHWYLQKPGQSPQLLIYKVSNRFSGVPDRFSGSGSGTDFTLKISRVEAEDVGVYYCSQNTHVPPTFGQGTKVEIE	3 % of GpH7-B3/GpL16-k0	6 % of GpH7-B3/GpL16-k0	90 % of GpH7-B3/GpL16-k0	61 % of GpH7-B3/GpL16-k0
GpH7-B3 A327P/GpL16-k0 (antibody, human IgG1, B3 variant; copies: 2 + 2) heavy: not shown light: DIVMTQSPLSLPVTPGEPASISCQASESLVHSNRNTYLHWYLQKPGQSPQLLIYKVSNRFSGVPDRFSGSGSGTDFTLKISRVEAEDVGVYYCSQNTHVPPTFGQGTKVEIE	18 % of GpH7-B3/GpL16-k0	14 % of GpH7-B3/GpL16-k0	95 % of GpH7-B3/GpL16-k0	16 % of GpH7-B3/GpL16-k0
GpH7-B3 A327S/GpL16-k0 (antibody, human IgG1, B3 variant; copies: 2 + 2) heavy: not shown light: DIVMTQSPLSLPVTPGEPASISCQASESLVHSNRNTYLHWYLQKPGQSPQLLIYKVSNRFSGVPDRFSGSGSGTDFTLKISRVEAEDVGVYYCSQNTHVPPTFGQGTKVEIE	62 % of GpH7-B3/GpL16-k0	59 % of GpH7-B3/GpL16-k0	88 % of GpH7-B3/GpL16-k0	51 % of GpH7-B3/GpL16-k0
GpH7-B3 A330P/GpL16-k0 (antibody, human IgG1, B3 variant; copies: 2 + 2) heavy: not shown light: DIVMTQSPLSLPVTPGEPASISCQASESLVHSNRNTYLHWYLQKPGQSPQLLIYKVSNRFSGVPDRFSGSGSGTDFTLKISRVEAEDVGVYYCSQNTHVPPTFGQGTKVEIE	39 % of GpH7-B3/GpL16-k0	42 % of GpH7-B3/GpL16-k0	87 % of GpH7-B3/GpL16-k0	25 % of GpH7-B3/GpL16-k0
GpH7-B3 D270V/GpL16-k0 (antibody, human IgG1, B3 variant; copies: 2 + 2) heavy: not shown light: DIVMTQSPLSLPVTPGEPASISCQASESLVHSNRNTYLHWYLQKPGQSPQLLIYKVSNRFSGVPDRFSGSGSGTDFTLKISRVEAEDVGVYYCSQNTHVPPTFGQGTKVEIE	3 % of GpH7-B3/GpL16-k0	1 % of GpH7-B3/GpL16-k0	84 % of GpH7-B3/GpL16-k0	37 % of GpH7-B3/GpL16-k0
GpH7-B3 D270Q/GpL16-k0 (antibody, human IgG1, B3 variant; copies: 2 + 2) heavy: not shown light: DIVMTQSPLSLPVTPGEPASISCQASESLVHSNRNTYLHWYLQKPGQSPQLLIYKVSNRFSGVPDRFSGSGSGTDFTLKISRVEAEDVGVYYCSQNTHVPPTFGQGTKVEIE	0 % of GpH7-B3/GpL16-k0	2 % of GpH7-B3/GpL16-k0	82 % of GpH7-B3/GpL16-k0	78 % of GpH7-B3/GpL16-k0
GpH7-B3 D270S/GpL16-k0 (antibody, human IgG1, B3 variant; copies: 2 + 2) heavy: not shown light: DIVMTQSPLSLPVTPGEPASISCQASESLVHSNRNTYLHWYLQKPGQSPQLLIYKVSNRFSGVPDRFSGSGSGTDFTLKISRVEAEDVGVYYCSQNTHVPPTFGQGTKVEIE	-1 % of GpH7-B3/GpL16-k0	0 % of GpH7-B3/GpL16-k0	73 % of GpH7-B3/GpL16-k0	49 % of GpH7-B3/GpL16-k0
GpH7-B3 D270N/GpL16-k0 (antibody, human IgG1, B3 variant; copies: 2 + 2) heavy: not shown light: DIVMTQSPLSLPVTPGEPASISCQASESLVHSNRNTYLHWYLQKPGQSPQLLIYKVSNRFSGVPDRFSGSGSGTDFTLKISRVEAEDVGVYYCSQNTHVPPTFGQGTKVEIE	-2 % of GpH7-B3/GpL16-k0	-1 % of GpH7-B3/GpL16-k0	68 % of GpH7-B3/GpL16-k0	34 % of GpH7-B3/GpL16-k0
GpH7-B3 D270H/GpL16-k0 (antibody, human IgG1, B3 variant; copies: 2 + 2) heavy: not shown light: DIVMTQSPLSLPVTPGEPASISCQASESLVHSNRNTYLHWYLQKPGQSPQLLIYKVSNRFSGVPDRFSGSGSGTDFTLKISRVEAEDVGVYYCSQNTHVPPTFGQGTKVEIE	-2 % of GpH7-B3/GpL16-k0	0 % of GpH7-B3/GpL16-k0	70 % of GpH7-B3/GpL16-k0	53 % of GpH7-B3/GpL16-k0
